{"source": "patent US20140044730A1", "binders": {"B1": {"name": "Comparator 7 (antibody, from another filing, IgG2, V domains shown)", "VH": "QVQLVQSGAEVKKPGASVKVSCKASGYTLTSYGISWVRQAPGQGLEWMGWVSFYNGNTNYAQKLQGRGTMTTDPSTSTAYMELRSLRSDDTAVYYCARGYGMDVWGQGTTVTVSS", "VL": "QSALTQPASVSGSPGQSITISCTGTSSDVGGYNSVSWYQQHPGKAPKLMIYEVSNRPSGVSNRFSGSKSGNTASLTISGLQAEDEADYYCNSYTSTSMVFGGGTKLTVLQ"}}, "key": {"[1]": {"target": "human PCSK9 with a C-terminal myc-myc-hexahistidine tag (human) (UniProt Q8NBP7)", "test": "SPR 25C pH 7.4, purified mAb captured"}, "[2]": {"target": "human PCSK9 with a C-terminal myc-myc-hexahistidine tag (human) (UniProt Q8NBP7)", "test": "blocking ELISA, hPCSK9-mmH vs coated hLDLR EGFA-hFc"}, "[3]": {"target": "human PCSK9 with a C-terminal myc-myc-hexahistidine tag (human) (UniProt Q8NBP7)", "test": "SPR (Biacore), 37 °C; antibody captured on anti-human Fc surface, hPCSK9-mmH injected (3.125-50 nM); association at pH 7.4, dissociation at pH 6.0"}, "[4]": {"target": "human PCSK9 with a C-terminal myc-myc-hexahistidine tag (human) (UniProt Q8NBP7)", "test": "SPR (Biacore), 37 °C; antibody captured on anti-human Fc surface, hPCSK9-mmH injected (3.125-50 nM); association at pH 7.4, dissociation at pH 7.2"}, "[5]": {"target": "human PCSK9 with a C-terminal myc-myc-hexahistidine tag (human) (UniProt Q8NBP7)", "test": "SPR (Biacore), 37 °C; antibody captured on anti-human Fc surface, hPCSK9-mmH injected (3.125-50 nM); association at pH 7.4, dissociation at pH 5.75"}, "[6]": {"target": "human PCSK9 with a C-terminal myc-myc-hexahistidine tag (human) (UniProt Q8NBP7)", "test": "SPR 25C pH 6.0, purified mAb captured"}, "[7]": {"target": "recombinant cynomolgus monkey PCSK9 with a C-terminal myc-myc hexahistidine tag (cynomolgus monkey)", "test": "cell-based or functional assay"}, "[8]": {"target": "human PCSK9 with a C-terminal myc-myc-hexahistidine tag (human) (UniProt Q8NBP7)", "test": "cell-based or functional assay"}, "[9]": {"target": "human PCSK9 with a C-terminal myc-myc hexahistidine tag and a D374Y mutation (human) (UniProt Q8NBP7)", "test": "cell-based or functional assay"}, "[10]": {"target": "human PCSK9 with a C-terminal myc-myc-hexahistidine tag (human) (UniProt Q8NBP7)", "test": "SPR 25C, purified mAb captured"}, "[11]": {"target": "human PCSK9 with a C-terminal myc-myc-hexahistidine tag (human) (UniProt Q8NBP7)", "test": "blocking ELISA pH 5.75, 500 pM hPCSK9-mmH vs coated hLDLR EGFA-hFc"}, "[12]": {"target": "human PCSK9 with a C-terminal myc-myc-hexahistidine tag (human) (UniProt Q8NBP7)", "test": "SPR (Biacore), 37 °C; antibody captured on anti-human Fc surface, hPCSK9-mmH injected (3.125-50 nM); association at pH 7.4, dissociation at pH 7.4"}, "[13]": {"target": "human PCSK9 with a C-terminal myc-myc-hexahistidine tag (human) (UniProt Q8NBP7)", "test": "blocking ELISA pH 7.2, 500 pM hPCSK9-mmH vs coated hLDLR EGFA-hFc"}}}
{"binder": "B1", "values": [{"measurement": "Kd", "setting": "[1]", "value": 0.728, "unit": "nM"}, {"measurement": "koff", "setting": "[1]", "value": "6.09e-05", "unit": "s⁻¹"}, {"measurement": "kon", "setting": "[1]", "value": 83600, "unit": "M⁻¹ s⁻¹"}, {"measurement": "t½", "setting": "[1]", "value": 3.16, "unit": "h"}, {"measurement": "IC50 ratio (pH 5.75/pH 7.2)", "setting": "[2]", "value": 1.3}, {"measurement": "t½ (dissociative half-life)", "setting": "[3]", "value": 1.19, "unit": "h"}, {"measurement": "t½ (dissociative half-life)", "setting": "[4]", "value": 1.47, "unit": "h"}, {"measurement": "t½ (dissociative half-life)", "setting": "[5]", "value": 1.44, "unit": "h"}, {"measurement": "Kd", "setting": "[6]", "value": 0.205, "unit": "nM"}, {"measurement": "koff", "setting": "[6]", "value": "2.84e-05", "unit": "s⁻¹"}, {"measurement": "kon", "setting": "[6]", "value": 138000, "unit": "M⁻¹ s⁻¹"}, {"measurement": "t½", "setting": "[6]", "value": 6.79, "unit": "h"}, {"measurement": "IC50, LDL uptake in HepG2 cells, 50 nM MfPCSK9-mmH", "setting": "[7]", "value": 10.4, "unit": "nM"}, {"measurement": "IC50, LDL uptake in HepG2 cells, 50 nM hPCSK9-mmH", "setting": "[8]", "value": 8.9, "unit": "nM"}, {"measurement": "IC50, LDL uptake in HepG2 cells, 2 nM hPCSK9-D374Y-mmH", "setting": "[9]", "value": 0.97, "unit": "nM"}, {"measurement": "KD ratio pH 6.0/pH 7.4", "setting": "[10]", "value": 0.28}, {"measurement": "ka ratio pH 6.0/pH 7.4", "setting": "[10]", "value": 1.65}, {"measurement": "kd ratio pH 6.0/pH 7.4", "setting": "[10]", "value": 0.47}, {"measurement": "t½ ratio pH 6.0/pH 7.4", "setting": "[10]", "value": 2.15}, {"measurement": "IC50", "setting": "[11]", "value": 0.331, "unit": "nM"}, {"measurement": "t½ (dissociative half-life)", "setting": "[12]", "value": 1.5, "unit": "h"}, {"measurement": "IC50", "setting": "[13]", "value": 0.245, "unit": "nM"}]}
